# According to patent US20200057047:
# B1: Flag-tagged GLK (protein)
# chain: DYKDDDDKMNPGFDLSRRNPQEDFELIQRIGSGTYGDVYKARNVNTGELAAIKVIKLEPGEDFAVVQQEIIMMKDCKHPNIVAYFGSYLRRDKLWICMEFCGGGSLQDIYHVTGPLSELQIAYVSRETLQGLYYLHSKGKMHRDIKGANILLTDNGHVKLADFGVSAQITATIAKRKSFIGTPYWMAPEVAAVERKGGYNQLCDLWAVGITAIELAELQPPMFDLHPMRALFLMTKSNFQPPKLKDKMKWSNSFHHFVKMALTKNPKKRPTAEKLLQHPFVTQHLTRSLAIELLDKVNNPDHSTYHDFDDDDPEPLVAVPHRIHSTSRNVREEKTRSEITFGQVKFDPPLRKETEPHHELPDSDGFLDSSEEIYYTARSNLDLQLEYGQGHQGGYFLGANKSLLKSVEEELHQRGHVAHLEDDEGDDDESKHSTLKAKIPPPLPPKPKSIFIPQEMHSTEDENQGTIKRCPMSGSPAKPSQVPPRPPPPRLPPHKPVALGNGMSSFQLNGERDGSLCQQQNEHRGTNLSRKEKKDVPKPISNGLPPTPKVHMGACFSKVFNGCPLKIHCASSWINPDTRDQYLIFGAEEGIYTLNLNELHETSMEQLFPRRCTWLYVMNNCLLSISGKASQLYSHNLPGLFDYARQMQKLPVAIPAHKLPDRILPRKFSVSAKIPETKWCQKCCVVRNPYTGHKYLCGALQTSIVLLEWVEPMQKFMLIKHIDFPIPCPLRMFEMLVVPEQEYPLVCVGVSRGRDFNQVVRFETVNPNSTSSWFTESDTPQTNVTHVTQLERDTILVCLDCCIKIVNLQGRLKSSRKLSSELTFDFQIESIVCLQDSVLAFWKHGMQGRSFRSNEVTQEISDSTRIFRLLGSDRVVVLESRPTDNPTANSNLYILAGHENSY
# B2: IKKβ (immunoprecipitated from HEK293T transfectants) (enzyme, UniProt O14920 1-756, looked up, species assumed)
# Inhibitor of nuclear factor kappa-B kinase subunit beta: MSWSPSLTTQTCGAWEMKERLGTGGFGNVIRWHNQETGEQIAIKQCRQELSPRNRERWCLEIQIMRRLTHPNVVAARDVPEGMQNLAPNDLPLLAMEYCQGGDLRKYLNQFENCCGLREGAILTLLSDIASALRYLHENRIIHRDLKPENIVLQQGEQRLIHKIIDLGYAKELDQGSLCTSFVGTLQYLAPELLEQQKYTVTVDYWSFGTLAFECITGFRPFLPNWQPVQWHSKVRQKSEVDIVVSEDLNGTVKFSSSLPYPNNLNSVLAERLEKWLQLMLMWHPRQRGTDPTYGPNGCFKALDDILNLKLVHILNMVTGTIHTYPVTEDESLQSLKARIQQDTGIPEEDQELLQEAGLALIPDKPATQCISDGKLNEGHTLDMDLVFLFDNSKITYETQISPRPQPESVSCILQEPKRNLAFFQLRKVWGQVWHSIQTLKEDCNRLQQGQRAAMMNLLRNNSCLSKMKNSMASMSQQLKAKLDFFKTSIQIDLEKYSEQTEFGITSDKLLLAWREMEQAVELCGRENEVKLLVERMMALQTDIVDLQRSPMGRKQGGTLDDLEEQARELYRRLREKPRDQRTEGDSQEMVRLLLQAIQSFEKKVRVIYTQLSKTVVCKQKALELLPKVEEVVSLMNEDEKTVVRLQEKRQKELWNLLKIACSKVRGPVSGSPDSMNASRLSQPGQLMSQPSTASNSLPEPAKKSEELVAEAHNLCTLLENAIQDTVREQDQSFTALDWSWLQTEEEEHSCLEQAS
# Legend:
# [1] = biological target: Myc-tagged IQGAP1 (wild type)
# [2] = tested on: Flag-tagged RORγt (wild type)
# Chain of Flag-tagged RORγt (wild type) (chain, as listed by the source): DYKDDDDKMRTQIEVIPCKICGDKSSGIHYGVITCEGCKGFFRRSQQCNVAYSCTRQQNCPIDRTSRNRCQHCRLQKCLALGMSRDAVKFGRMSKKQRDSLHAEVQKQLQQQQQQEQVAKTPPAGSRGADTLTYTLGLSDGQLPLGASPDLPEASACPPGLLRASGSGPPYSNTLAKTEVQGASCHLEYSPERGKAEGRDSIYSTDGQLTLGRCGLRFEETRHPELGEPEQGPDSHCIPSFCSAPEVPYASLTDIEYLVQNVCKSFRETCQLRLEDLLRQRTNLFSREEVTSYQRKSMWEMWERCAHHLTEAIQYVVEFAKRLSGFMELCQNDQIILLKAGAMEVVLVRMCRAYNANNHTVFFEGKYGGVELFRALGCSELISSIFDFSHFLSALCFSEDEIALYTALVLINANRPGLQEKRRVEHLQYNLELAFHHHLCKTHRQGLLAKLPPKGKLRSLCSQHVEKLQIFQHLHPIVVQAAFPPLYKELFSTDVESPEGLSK
# Chain of Myc-tagged IQGAP1 (wild type) (chain, as listed by the source): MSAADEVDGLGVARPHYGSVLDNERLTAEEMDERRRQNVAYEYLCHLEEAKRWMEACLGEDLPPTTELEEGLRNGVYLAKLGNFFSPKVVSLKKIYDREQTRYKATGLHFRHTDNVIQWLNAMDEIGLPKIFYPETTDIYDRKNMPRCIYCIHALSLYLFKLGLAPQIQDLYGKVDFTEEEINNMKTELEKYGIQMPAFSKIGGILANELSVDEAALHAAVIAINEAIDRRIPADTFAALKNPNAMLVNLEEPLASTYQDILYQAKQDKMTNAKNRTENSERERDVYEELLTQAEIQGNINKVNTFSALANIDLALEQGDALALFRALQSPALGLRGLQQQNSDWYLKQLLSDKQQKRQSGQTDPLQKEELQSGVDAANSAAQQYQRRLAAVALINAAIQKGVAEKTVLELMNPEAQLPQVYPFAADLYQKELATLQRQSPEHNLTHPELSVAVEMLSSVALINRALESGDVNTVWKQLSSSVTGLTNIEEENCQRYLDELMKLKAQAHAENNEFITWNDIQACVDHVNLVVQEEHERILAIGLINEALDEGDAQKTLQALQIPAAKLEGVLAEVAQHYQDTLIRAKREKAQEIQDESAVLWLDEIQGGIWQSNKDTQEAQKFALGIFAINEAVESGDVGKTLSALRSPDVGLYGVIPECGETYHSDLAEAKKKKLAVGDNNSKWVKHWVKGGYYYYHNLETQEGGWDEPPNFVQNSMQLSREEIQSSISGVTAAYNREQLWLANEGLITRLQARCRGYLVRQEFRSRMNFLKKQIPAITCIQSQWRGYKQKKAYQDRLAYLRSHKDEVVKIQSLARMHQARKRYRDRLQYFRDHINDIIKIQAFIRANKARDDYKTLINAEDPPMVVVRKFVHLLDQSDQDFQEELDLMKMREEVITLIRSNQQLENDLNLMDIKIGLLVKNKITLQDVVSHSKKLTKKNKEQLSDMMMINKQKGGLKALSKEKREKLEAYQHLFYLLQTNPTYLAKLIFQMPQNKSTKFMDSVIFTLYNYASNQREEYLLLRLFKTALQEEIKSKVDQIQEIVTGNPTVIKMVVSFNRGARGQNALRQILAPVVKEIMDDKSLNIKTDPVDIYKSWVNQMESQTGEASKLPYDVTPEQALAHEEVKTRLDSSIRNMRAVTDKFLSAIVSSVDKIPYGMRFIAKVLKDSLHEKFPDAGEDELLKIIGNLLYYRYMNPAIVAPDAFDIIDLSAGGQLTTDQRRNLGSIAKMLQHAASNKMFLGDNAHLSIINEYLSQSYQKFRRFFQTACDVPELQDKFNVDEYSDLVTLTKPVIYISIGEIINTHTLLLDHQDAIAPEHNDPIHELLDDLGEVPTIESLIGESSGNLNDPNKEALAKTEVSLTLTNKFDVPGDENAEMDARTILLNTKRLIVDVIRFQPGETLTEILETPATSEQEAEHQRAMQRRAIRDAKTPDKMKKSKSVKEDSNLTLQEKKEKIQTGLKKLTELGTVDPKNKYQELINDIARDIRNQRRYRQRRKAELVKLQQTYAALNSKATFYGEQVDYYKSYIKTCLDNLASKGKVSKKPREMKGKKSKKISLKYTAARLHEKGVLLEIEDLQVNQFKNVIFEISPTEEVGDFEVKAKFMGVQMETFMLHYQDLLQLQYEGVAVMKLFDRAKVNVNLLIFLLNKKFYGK
Protein,in vitro kinase assay: IQGAP1 phosphorylation [1],in vitro kinase assay: RORγt phosphorylation [2]
B1,IQGAP1 phosphorylation was induced by GLK,
B2,,RORγt phosphorylation was induced in vitro by IKKβ
